Measured values: the supplement of paper PMC7125110
± gives the standard error. This sample holds only a part of the variants without activity.

B1: glmS ribozyme (parent)
chain: AUAAAAGCGCCAGAACUACAGAAAUGUAGUUGACGAGGAGGAGGUUUAUCGAAUUUUCGGCGGAUGCCUCCAAA

Assays:
Conditions in all cases: with glucosamine-6-phosphate
[1] = variants of: B1; assay: self-cleavage kobs at 160 uM GlcN6P; higher = faster cleavage; RNA array
Method in brief: (§1)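 On sequenced MiSeq chips, barcoded ribozyme variants were made in situ by E. coli RNA polymerase and followed at 37 °C through a hybridised Cy3 probe. Glucosamine-6-phosphate was flowed in at 40 μM to 10 mM in HEPES/KCl/Mg(OAc)2 buffer. Exponential fits to normalised per-tile medians gave kobs, and weighted Michaelis–Menten fits gave kcat and KM.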

[2] = variants of: B1; assay: self-cleavage kobs at 640 uM GlcN6P; higher = faster cleavage; RNA array
Method in brief: as §1

[3] = variants of: B1; assay: self-cleavage kobs at 2500 uM GlcN6P; higher = faster cleavage; RNA array
Method in brief: as §1

[4] = variants of: B1; assay: self-cleavage kobs at 10000 uM GlcN6P; higher = faster cleavage; RNA array
Method in brief: as §1

## G32C A33U A52G
[1]
  self-cleavage kobs at 160 uM GlcN6P: < 1e-05 s⁻¹
[2]
  self-cleavage kobs at 640 uM GlcN6P: < 1e-05 s⁻¹
[3]
  self-cleavage kobs at 2500 uM GlcN6P: < 1e-05 s⁻¹

## A15U G40U A48C
[1]
  self-cleavage kobs at 160 uM GlcN6P: < 1e-05 s⁻¹
[2]
  self-cleavage kobs at 640 uM GlcN6P: < 1e-05 s⁻¹

## G29A A39U G40A
[1]
  self-cleavage kobs at 160 uM GlcN6P: 7.25e-05 ± 2.4e-05 s⁻¹
[2]
  self-cleavage kobs at 640 uM GlcN6P: 0.000163 ± 5.7e-05 s⁻¹
[3]
  self-cleavage kobs at 2500 uM GlcN6P: 0.000397 ± 0.0001 s⁻¹

## G13A G40C C70G
[1]
  self-cleavage kobs at 160 uM GlcN6P: < 1e-05 s⁻¹
[2]
  self-cleavage kobs at 640 uM GlcN6P: < 1e-05 s⁻¹
[3]
  self-cleavage kobs at 2500 uM GlcN6P: < 1e-05 s⁻¹
[4]
  self-cleavage kobs at 10000 uM GlcN6P: < 1e-05 s⁻¹

## G29C A36G G41U
[1]
  self-cleavage kobs at 160 uM GlcN6P: < 1e-05 s⁻¹
[2]
  self-cleavage kobs at 640 uM GlcN6P: < 1e-05 s⁻¹
[3]
  self-cleavage kobs at 2500 uM GlcN6P: < 1e-05 s⁻¹

## A15U A39C C58A C70G
[1]
  self-cleavage kobs at 160 uM GlcN6P: < 1e-05 s⁻¹

## G29U G43A C70A
[1]
  self-cleavage kobs at 160 uM GlcN6P: < 1e-05 s⁻¹

## G29C G43C C70G
[1]
  self-cleavage kobs at 160 uM GlcN6P: < 1e-05 s⁻¹
[2]
  self-cleavage kobs at 640 uM GlcN6P: < 1e-05 s⁻¹

## U30C G43U
[1]
  self-cleavage kobs at 160 uM GlcN6P: < 1e-05 s⁻¹
[3]
  self-cleavage kobs at 2500 uM GlcN6P: < 1e-05 s⁻¹
[4]
  self-cleavage kobs at 10000 uM GlcN6P: < 1e-05 s⁻¹

## A14U U30A A33U G51A
[1]
  self-cleavage kobs at 160 uM GlcN6P: < 1e-05 s⁻¹

## G32C A48G G51U
[1]
  self-cleavage kobs at 160 uM GlcN6P: < 1e-05 s⁻¹
[2]
  self-cleavage kobs at 640 uM GlcN6P: < 1e-05 s⁻¹
[3]
  self-cleavage kobs at 2500 uM GlcN6P: < 1e-05 s⁻¹

## G29A A33G
[1]
  self-cleavage kobs at 160 uM GlcN6P: < 1e-05 s⁻¹
[2]
  self-cleavage kobs at 640 uM GlcN6P: < 1e-05 s⁻¹
[3]
  self-cleavage kobs at 2500 uM GlcN6P: < 1e-05 s⁻¹
[4]
  self-cleavage kobs at 10000 uM GlcN6P: < 1e-05 s⁻¹

## C16A A33U A36C A39C G43U
[1]
  self-cleavage kobs at 160 uM GlcN6P: < 1e-05 s⁻¹

## A12G G38U A52U A64U
[1]
  self-cleavage kobs at 160 uM GlcN6P: < 1e-05 s⁻¹
[2]
  self-cleavage kobs at 640 uM GlcN6P: < 1e-05 s⁻¹
[3]
  self-cleavage kobs at 2500 uM GlcN6P: < 1e-05 s⁻¹

## A15C U65A
[1]
  self-cleavage kobs at 160 uM GlcN6P: 3.48e-05 ± 1.4e-05 s⁻¹
[2]
  self-cleavage kobs at 640 uM GlcN6P: 0.000177 ± 2.9e-05 s⁻¹
[3]
  self-cleavage kobs at 2500 uM GlcN6P: 0.000234 ± 5.7e-05 s⁻¹
[4]
  self-cleavage kobs at 10000 uM GlcN6P: 0.000807 ± 0.00016 s⁻¹

## C16U G29C C67A
[1]
  self-cleavage kobs at 160 uM GlcN6P: 0.00011 ± 2.1e-05 s⁻¹
[2]
  self-cleavage kobs at 640 uM GlcN6P: 0.000258 ± 4.5e-05 s⁻¹
[3]
  self-cleavage kobs at 2500 uM GlcN6P: 0.00106 ± 0.00017 s⁻¹

## U30A A39G A48G C61U
[1]
  self-cleavage kobs at 160 uM GlcN6P: < 1e-05 s⁻¹
[3]
  self-cleavage kobs at 2500 uM GlcN6P: < 1e-05 s⁻¹

## A12U A15G A36U
[1]
  self-cleavage kobs at 160 uM GlcN6P: < 1e-05 s⁻¹

## U30C A36G C67A
[1]
  self-cleavage kobs at 160 uM GlcN6P: < 1e-05 s⁻¹
[3]
  self-cleavage kobs at 2500 uM GlcN6P: < 1e-05 s⁻¹

## A28G C70A
[1]
  self-cleavage kobs at 160 uM GlcN6P: 0.000126 ± 3.7e-05 s⁻¹
[2]
  self-cleavage kobs at 640 uM GlcN6P: 6.33e-05 ± 2.1e-05 s⁻¹
[3]
  self-cleavage kobs at 2500 uM GlcN6P: 0.000497 ± 0.00012 s⁻¹

## C16G G38A
[1]
  self-cleavage kobs at 160 uM GlcN6P: < 1e-05 s⁻¹
[2]
  self-cleavage kobs at 640 uM GlcN6P: < 1e-05 s⁻¹
[4]
  self-cleavage kobs at 10000 uM GlcN6P: < 1e-05 s⁻¹

## G13A A64C
[1]
  self-cleavage kobs at 160 uM GlcN6P: < 1e-05 s⁻¹
[2]
  self-cleavage kobs at 640 uM GlcN6P: < 1e-05 s⁻¹
[3]
  self-cleavage kobs at 2500 uM GlcN6P: < 1e-05 s⁻¹
[4]
  self-cleavage kobs at 10000 uM GlcN6P: < 1e-05 s⁻¹

## G13U G32U C34A G44A
[1]
  self-cleavage kobs at 160 uM GlcN6P: < 1e-05 s⁻¹
[3]
  self-cleavage kobs at 2500 uM GlcN6P: < 1e-05 s⁻¹

## C16U U55G U69G
[1]
  self-cleavage kobs at 160 uM GlcN6P: 9.72e-05 ± 2.1e-05 s⁻¹
[2]
  self-cleavage kobs at 640 uM GlcN6P: 8.62e-05 ± 2.4e-05 s⁻¹
[3]
  self-cleavage kobs at 2500 uM GlcN6P: 5.05e-05 ± 1.1e-05 s⁻¹
[4]
  self-cleavage kobs at 10000 uM GlcN6P: 4.21e-05 ± 1.4e-05 s⁻¹
